B1: 2K2A (parent)
chain: ELREAFRLYDKEGNGYISTDVMREILAELDETLSSEDLDAMIDEIDADGSGTVDFEEFMGVMT

Variants of: B1
Experiment: folding stability dG (cDNA display proteolysis); higher = more stable
Settings: PBS, room temperature

Compared with T52Q, T52V is lower in “folding stability dG” value: 1.68 kcal/mol for the first, 1.55 kcal/mol for the second.

Compared with T52S, T52W is lower in “folding stability dG” value: 1.45 kcal/mol for the first, 1.31 kcal/mol for the second.

First: T52I
Second: T52E
The “folding stability dG” value of the first is higher: 1.64 kcal/mol for the first, 1.28 kcal/mol for the second.

First: T52P
Second: T52N
The “folding stability dG” value of the first is lower: -0.373 kcal/mol for the first, 1.49 kcal/mol for the second.

First: T52M
Second: T52Y
The “folding stability dG” value of the first is higher: 1.74 kcal/mol for the first, 1.52 kcal/mol for the second.

First: T52G
Second: T52F
The “folding stability dG” value of the first is lower: 1.02 kcal/mol for the first, 1.53 kcal/mol for the second.

Going from T52A to T52D, the “folding stability dG” value falls from 1.11 kcal/mol to 0.729 kcal/mol.

Going from T52K to T52L, the “folding stability dG” value falls from 1.74 kcal/mol to 1.65 kcal/mol.

Compared with T52R, T52H is lower in “folding stability dG” value: 1.87 kcal/mol for the first, 1.69 kcal/mol for the second.

Compared with T52C, D48E is higher in “folding stability dG” value: 1.15 kcal/mol for the first, 1.48 kcal/mol for the second.

First: D48L
Second: D48T
The “folding stability dG” value of the first is lower: 1.38 kcal/mol for the first, 1.6 kcal/mol for the second.

First: D48M
Second: D48K
The “folding stability dG” value of the first is lower: 1.33 kcal/mol for the first, 1.57 kcal/mol for the second.

First: D48F
Second: D48H
The “folding stability dG” value of the first is lower: 1.39 kcal/mol for the first, 1.51 kcal/mol for the second.

Compared with D48R, D48P is lower in “folding stability dG” value: 1.52 kcal/mol for the first, 0.465 kcal/mol for the second.

Compared with D48Q, D48V is lower in “folding stability dG” value: 1.31 kcal/mol for the first, 1.18 kcal/mol for the second.

Compared with D48C, D48Y is lower in “folding stability dG” value: 1.4 kcal/mol for the first, 1.3 kcal/mol for the second.

Compared with D48A, D48I is lower in “folding stability dG” value: 1.48 kcal/mol for the first, 1.24 kcal/mol for the second.

First: D48W
Second: D48N
The “folding stability dG” value of the first is lower: 1.24 kcal/mol for the first, 1.84 kcal/mol for the second.

Compared with D48G, D48S is higher in “folding stability dG” value: 1.37 kcal/mol for the first, 1.57 kcal/mol for the second.

First: G49S
Second: G49W
The “folding stability dG” value of the first is higher: 1.63 kcal/mol for the first, 0.635 kcal/mol for the second.

First: G49P
Second: G49D
The “folding stability dG” value of the first is lower: 0.091 kcal/mol for the first, 1.42 kcal/mol for the second.

Compared with G49A, G49C is higher in “folding stability dG” value: 1.5 kcal/mol for the first, 1.71 kcal/mol for the second.

First: G49M
Second: G49E
The “folding stability dG” value of the first is higher: 1.43 kcal/mol for the first, 1.26 kcal/mol for the second.

First: G49Y
Second: G49I
The “folding stability dG” value of the first is higher: 1.04 kcal/mol for the first, 0.499 kcal/mol for the second.

Compared with G49R, G49Q is lower in “folding stability dG” value: 1.95 kcal/mol for the first, 1.77 kcal/mol for the second.

Going from G49L to G49N, the “folding stability dG” value rises from 1.29 kcal/mol to 1.84 kcal/mol.

Compared with G49F, G49K is higher in “folding stability dG” value: 1.01 kcal/mol for the first, 1.99 kcal/mol for the second.

Going from G49T to G49V, the “folding stability dG” value falls from 0.928 kcal/mol to 0.799 kcal/mol.

Going from G49H to S50H, the “folding stability dG” value falls from 1.94 kcal/mol to 1.16 kcal/mol.

First: S50D
Second: S50G
The “folding stability dG” value of the first is higher: 1.33 kcal/mol for the first, 1.05 kcal/mol for the second.

Going from S50N to S50R, the “folding stability dG” value falls from 1.67 kcal/mol to 1.61 kcal/mol.

Going from S50T to S50Q, the “folding stability dG” value falls from 1.88 kcal/mol to 1.12 kcal/mol.

Going from S50P to S50F, the “folding stability dG” value rises from 0.13 kcal/mol to 0.991 kcal/mol.

First: S50M
Second: S50L
The “folding stability dG” value of the first is higher: 1.29 kcal/mol for the first, 1.22 kcal/mol for the second.

Compared with S50Y, S50A is higher in “folding stability dG” value: 1.05 kcal/mol for the first, 1.11 kcal/mol for the second.

Compared with S50C, S50I is lower in “folding stability dG” value: 1.39 kcal/mol for the first, 1.14 kcal/mol for the second.

First: S50W
Second: S50E
The “folding stability dG” value of the first is lower: 0.737 kcal/mol for the first, 0.94 kcal/mol for the second.

Compared with S50V, S50K is higher in “folding stability dG” value: 1.18 kcal/mol for the first, 1.78 kcal/mol for the second.

Compared with F55K, F55G is lower in “folding stability dG” value: 0.132 kcal/mol for the first, -0.263 kcal/mol for the second.

First: F55E
Second: F55P
The “folding stability dG” value of the first is higher: 1.33 kcal/mol for the first, -0.144 kcal/mol for the second.

Going from F55D to F55I, the “folding stability dG” value rises from -0.867 kcal/mol to 1.47 kcal/mol.

First: F55R
Second: F55H
The “folding stability dG” value of the first is higher: 0.375 kcal/mol for the first, 0.24 kcal/mol for the second.

Going from F55Q to F55S, the “folding stability dG” value falls from 0.578 kcal/mol to 0.161 kcal/mol.

Compared with F55A, F55W is higher in “folding stability dG” value: 0.686 kcal/mol for the first, 1.75 kcal/mol for the second.

First: F55Y
Second: F55M
The “folding stability dG” value of the first is higher: 1.88 kcal/mol for the first, 1.31 kcal/mol for the second.

Going from F55C to F55L, the “folding stability dG” value rises from 0.683 kcal/mol to 1.66 kcal/mol.

First: F55V
Second: F55T
The “folding stability dG” value of the first is higher: 1.32 kcal/mol for the first, 0.148 kcal/mol for the second.

Compared with F55N, D54E is higher in “folding stability dG” value: -0.55 kcal/mol for the first, 1.33 kcal/mol for the second.

Going from D54K to D54G, the “folding stability dG” value rises from 1.57 kcal/mol to 2.07 kcal/mol.

Compared with D54A, D54V is lower in “folding stability dG” value: 1.78 kcal/mol for the first, 1.38 kcal/mol for the second.

First: D54F
Second: D54W
The “folding stability dG” value of the first is higher: 1.79 kcal/mol for the first, 1.72 kcal/mol for the second.

Going from D54M to D54R, the “folding stability dG” value falls from 1.76 kcal/mol to 1.73 kcal/mol.

Compared with D54I, D54P is lower in “folding stability dG” value: 1.27 kcal/mol for the first, 1.14 kcal/mol for the second.

First: D54C
Second: D54Y
The “folding stability dG” value of the first is lower: 1.51 kcal/mol for the first, 2 kcal/mol for the second.

First: D54S
Second: D54L
The “folding stability dG” value of the first is higher: 2.43 kcal/mol for the first, 1.43 kcal/mol for the second.

Going from D54T to D54N, the “folding stability dG” value falls from 2.36 kcal/mol to 2.26 kcal/mol.

Compared with D54H, D54Q is lower in “folding stability dG” value: 1.68 kcal/mol for the first, 1.63 kcal/mol for the second.

Going from A47H to A47R, the “folding stability dG” value rises from 1.96 kcal/mol to 2.06 kcal/mol.

Going from A47M to A47W, the “folding stability dG” value rises from 1.64 kcal/mol to 1.96 kcal/mol.

First: A47K
Second: A47Y
The “folding stability dG” value of the first is higher: 2.2 kcal/mol for the first, 1.62 kcal/mol for the second.

First: A47P
Second: A47I
The “folding stability dG” value of the first is higher: 1.92 kcal/mol for the first, 1.86 kcal/mol for the second.

Compared with A47Q, A47S is lower in “folding stability dG” value: 1.93 kcal/mol for the first, 1.8 kcal/mol for the second.

Going from A47T to A47N, the “folding stability dG” value falls from 1.84 kcal/mol to 1.62 kcal/mol.

First: A47L
Second: A47V
The “folding stability dG” value of the first is lower: 1.78 kcal/mol for the first, 1.91 kcal/mol for the second.

Compared with A47G, V53T is lower in “folding stability dG” value: 1.57 kcal/mol for the first, -0.067 kcal/mol for the second.

Compared with V53F, V53I is higher in “folding stability dG” value: 1.07 kcal/mol for the first, 2.37 kcal/mol for the second.

First: V53L
Second: V53P
The “folding stability dG” value of the first is higher: 1.58 kcal/mol for the first, -0.828 kcal/mol for the second.

First: V53H
Second: V53A
The “folding stability dG” value of the first is lower: 0.004 kcal/mol for the first, 0.162 kcal/mol for the second.

Compared with V53K, V53Q is lower in “folding stability dG” value: -0.419 kcal/mol for the first, -0.515 kcal/mol for the second.

First: V53G
Second: V53C
The “folding stability dG” value of the first is lower: -0.308 kcal/mol for the first, 0.799 kcal/mol for the second.

Going from V53W to V53S, the “folding stability dG” value falls from 0.916 kcal/mol to 0.029 kcal/mol.

Compared with V53Y, V53R is lower in “folding stability dG” value: 0.679 kcal/mol for the first, -0.087 kcal/mol for the second.

First: V53M
Second: E56D
The “folding stability dG” value of the first is lower: 0.875 kcal/mol for the first, 1.84 kcal/mol for the second.

First: E56A
Second: E56C
The “folding stability dG” value of the first is lower: 1.78 kcal/mol for the first, 1.92 kcal/mol for the second.

Going from G51C to G51P, the “folding stability dG” value falls from 0.991 kcal/mol to -0.745 kcal/mol.

Compared with G51K, G51N is lower in “folding stability dG” value: 1.27 kcal/mol for the first, 1.18 kcal/mol for the second.

Compared with G51T, G51S is higher in “folding stability dG” value: 0.424 kcal/mol for the first, 0.834 kcal/mol for the second.

Going from G51D to G51E, the “folding stability dG” value falls from 0.686 kcal/mol to 0.622 kcal/mol.

First: G51R
Second: G51M
The “folding stability dG” value of the first is higher: 1.35 kcal/mol for the first, 1.15 kcal/mol for the second.

Going from G51V to G51F, the “folding stability dG” value rises from 0.029 kcal/mol to 0.853 kcal/mol.

Going from G51H to G51L, the “folding stability dG” value falls from 1.39 kcal/mol to 0.92 kcal/mol.

Going from G51A to G51Q, the “folding stability dG” value rises from 0.849 kcal/mol to 1.01 kcal/mol.

Compared with G51Y, G51I is lower in “folding stability dG” value: 0.517 kcal/mol for the first, 0.064 kcal/mol for the second.

In the case of G51W, the “folding stability dG” value is reported as 0.564 kcal/mol.
